Experimental data taken from article PMC10611751 (2023).

T1: full-length β-catenin 1-781 (mouse, UniProt Q02248 1-781)
T1 chain: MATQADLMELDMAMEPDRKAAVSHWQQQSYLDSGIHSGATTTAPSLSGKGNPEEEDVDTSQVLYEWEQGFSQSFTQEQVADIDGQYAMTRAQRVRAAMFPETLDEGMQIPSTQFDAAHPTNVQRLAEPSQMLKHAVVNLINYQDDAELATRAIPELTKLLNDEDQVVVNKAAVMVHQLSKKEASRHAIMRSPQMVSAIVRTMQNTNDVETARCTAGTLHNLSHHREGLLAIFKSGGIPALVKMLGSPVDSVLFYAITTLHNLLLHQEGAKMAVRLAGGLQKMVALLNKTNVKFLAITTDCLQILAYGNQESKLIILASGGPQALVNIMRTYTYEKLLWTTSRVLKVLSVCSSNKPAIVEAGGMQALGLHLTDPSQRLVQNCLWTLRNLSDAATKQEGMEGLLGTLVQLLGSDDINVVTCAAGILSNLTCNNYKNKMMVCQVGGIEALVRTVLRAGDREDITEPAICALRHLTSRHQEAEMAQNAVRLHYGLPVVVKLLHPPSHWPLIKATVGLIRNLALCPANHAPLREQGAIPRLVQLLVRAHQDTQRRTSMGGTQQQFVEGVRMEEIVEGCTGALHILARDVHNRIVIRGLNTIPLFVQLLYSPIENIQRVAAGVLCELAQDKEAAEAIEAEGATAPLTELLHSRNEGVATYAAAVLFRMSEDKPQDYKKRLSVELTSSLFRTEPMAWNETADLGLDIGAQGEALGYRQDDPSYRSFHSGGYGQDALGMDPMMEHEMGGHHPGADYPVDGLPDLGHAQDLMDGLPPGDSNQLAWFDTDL

T2: p120 catenin 324-938 (mouse, UniProt P30999 324-938)
T2 chain: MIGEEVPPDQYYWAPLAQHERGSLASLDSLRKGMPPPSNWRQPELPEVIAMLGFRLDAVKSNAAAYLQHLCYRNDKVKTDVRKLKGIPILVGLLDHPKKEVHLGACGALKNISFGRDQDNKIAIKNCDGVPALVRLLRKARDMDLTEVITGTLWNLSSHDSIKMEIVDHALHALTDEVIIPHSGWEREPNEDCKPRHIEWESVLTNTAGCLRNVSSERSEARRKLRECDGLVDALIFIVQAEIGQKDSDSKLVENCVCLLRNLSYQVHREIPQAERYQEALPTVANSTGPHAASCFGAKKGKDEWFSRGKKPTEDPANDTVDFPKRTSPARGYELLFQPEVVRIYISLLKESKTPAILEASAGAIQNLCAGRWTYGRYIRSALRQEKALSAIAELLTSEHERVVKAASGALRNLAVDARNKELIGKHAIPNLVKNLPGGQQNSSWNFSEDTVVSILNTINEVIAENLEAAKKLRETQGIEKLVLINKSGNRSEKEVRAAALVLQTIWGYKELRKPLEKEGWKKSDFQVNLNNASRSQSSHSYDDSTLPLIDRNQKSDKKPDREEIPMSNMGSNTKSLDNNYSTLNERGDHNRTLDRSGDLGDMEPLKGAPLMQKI

T3: AnkG R6-24 (Rattus norvegicus)
T3 chain: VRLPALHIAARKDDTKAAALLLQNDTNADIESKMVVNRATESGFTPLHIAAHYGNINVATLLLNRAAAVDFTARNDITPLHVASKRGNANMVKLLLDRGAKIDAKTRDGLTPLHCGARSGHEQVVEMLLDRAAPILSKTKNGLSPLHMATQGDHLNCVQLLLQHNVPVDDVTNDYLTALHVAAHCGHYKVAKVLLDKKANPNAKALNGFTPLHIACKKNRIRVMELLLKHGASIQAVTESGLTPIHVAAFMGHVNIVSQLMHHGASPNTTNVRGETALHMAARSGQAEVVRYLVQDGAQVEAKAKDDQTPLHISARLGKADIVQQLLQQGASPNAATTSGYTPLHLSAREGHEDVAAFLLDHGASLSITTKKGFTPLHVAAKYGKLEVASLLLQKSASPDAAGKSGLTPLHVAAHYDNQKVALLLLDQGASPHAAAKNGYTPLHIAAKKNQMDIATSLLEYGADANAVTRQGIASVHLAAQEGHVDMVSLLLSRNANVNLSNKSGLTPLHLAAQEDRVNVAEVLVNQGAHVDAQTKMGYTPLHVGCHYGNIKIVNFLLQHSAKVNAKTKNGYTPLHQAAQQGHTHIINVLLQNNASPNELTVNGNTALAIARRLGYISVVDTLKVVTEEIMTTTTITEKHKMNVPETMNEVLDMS

T4: Ankyrin-G ANK repeats 8-14 (UniProt O70511 275-500)
T4 chain: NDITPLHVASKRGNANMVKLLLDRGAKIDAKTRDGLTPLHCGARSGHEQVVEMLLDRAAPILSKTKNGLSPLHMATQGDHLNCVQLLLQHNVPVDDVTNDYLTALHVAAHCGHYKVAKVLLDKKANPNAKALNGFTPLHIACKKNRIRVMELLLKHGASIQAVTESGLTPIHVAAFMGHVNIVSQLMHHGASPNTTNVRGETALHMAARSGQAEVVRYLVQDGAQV

B1: Ankyrin-G 24 ANK repeats (residues 38-855) (domain or fragment)
chain: KSDANASYLRAARAGHLEKALDYIKNGVDVNICNQNGLNALHLASKEGHVEVVSELLQREANVDAATKKGNTALHIASLAGQAEVVKVLVTNGANVNAQSQNGFTPLYMAAQENHLEVVRFLLDNGASQSLATEDGFTPLAVALQQGHDQVVSLLLENDTKGKVRLPALHIAARKDDTKAAALLLQNDTNADIESKMVVNRATESGFTPLHIAAHYGNINVATLLLNRAAAVDFTARNDITPLHVASKRGNANMVKLLLDRGAKIDAKTRDGLTPLHCGARSGHEQVVEMLLDRAAPILSKTKNGLSPLHMATQGDHLNCVQLLLQHNVPVDDVTNDYLTALHVAAHCGHYKVAKVLLDKKANPNAKALNGFTPLHIACKKNRIRVMELLLKHGASIQAVTESGLTPIHVAAFMGHVNIVSQLMHHGASPNTTNVRGETALHMAARSGQAEVVRYLVQDGAQVEAKAKDDQTPLHISARLGKADIVQQLLQQGASPNAATTSGYTPLHLSAREGHEDVAAFLLDHGASLSITTKKGFTPLHVAAKYGKLEVASLLLQKSASPDAAGKSGLTPLHVAAHYDNQKVALLLLDQGASPHAAAKNGYTPLHIAAKKNQMDIATSLLEYGADANAVTRQGIASVHLAAQEGHVDMVSLLLSRNANVNLSNKSGLTPLHLAAQEDRVNVAEVLVNQGAHVDAQTKMGYTPLHVGCHYGNIKIVNFLLQHSAKVNAKTKNGYTPLHQAAQQGHTHIINVLLQNNASPNELTVNGNTALAIARRLGYISVVDTLKVVTEEIMTTTTITEKHKMNVPETMNEVLDMS
B2: E-cadherin C-terminal domain (residues 734-884) (domain or fragment)
chain: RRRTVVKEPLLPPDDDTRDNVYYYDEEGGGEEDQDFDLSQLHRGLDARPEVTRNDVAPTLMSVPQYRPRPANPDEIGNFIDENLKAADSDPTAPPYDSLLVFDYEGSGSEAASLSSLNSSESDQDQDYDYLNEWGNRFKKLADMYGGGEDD

Assays:
Assay in all cases: ITC
[1] = molecular target: E-cadherin CTD site-1 to A (mouse, UniProt P09803 734-884, Y755A | Y756A | Y757A)
[2] = molecular target: E-cadherin CTD site-1, 2 to A (mouse, UniProt P09803 734-884, Y755A | Y756A | Y757A | Y829A | Y837A)
[3] = molecular target: E-cadherin CTD site-3 to A (mouse, UniProt P09803 734-884, Y861A | Y863A | W867A)
[4] = molecular target: E-cadherin CTD site-1, 3 to A (mouse, UniProt P09803 734-884, Y755A | Y756A | Y757A | Y861A | Y863A | W867A)
[5] = molecular target: E-cadherin CTD site-2 to A (mouse, UniProt P09803 734-884, Y829A | Y837A)
[6] = molecular target: E-cadherin CTD site-2, 3 to A (mouse, UniProt P09803 734-884, Y829A | Y837A | Y861A | Y863A | W867A)
[7] = molecular target: B1
[8] = molecular target: T1, full-length β-catenin 1-781
[9] = molecular target: T2, p120 catenin 324-938
[10] = molecular target: T3, AnkG R6-24
[11] = molecular target: T4, Ankyrin-G ANK repeats 8-14

Kd [1]	Kd [2]	Kd [3]	Kd [4]	Kd [5]	Kd [6]	Kd [7]	Kd [8]	Kd [9]	Kd [10]	Kd [11]	Binder
2000 nM	6300 nM	4200 nM	4900 nM	2900 nM	3300 nM						B1
						2800 nM	36 nM	1700 nM	2900 nM	5000 nM	B2
